B1: SPN-E* (structured_DNA)
DNA 1: TGCAGCTAAGCAGGCGGCTCACAAAACCATTCGCATGCGGC
DNA 2: CTTAGCTGCA
B2: MB7 (ssDNA)
DNA: TCGCACATTCCGCTTCTACCGGGGGGGTCGAGCTGAGTGGATGCGAATCTGTGGGTGGGCCGTAAGTCCGTGTGTGCGAATGTGCGA
B3: MB9 (ssDNA)
DNA: TCGCACATTCCGCTTCTACCGGGGGGGTCGAGCTGAGTGGATGCGAATCTGTGGGTGGGCCGTAAGTCCGTGTGTGCGAAAATGTGCGA

Tests used:
[1] = target: T1, Lysozyme (egg white) (UniProt P00698 P00698:19-147); assay: fluorescence turn-on; 100 uM SPN detects 5 ng/mL lysozyme; 25 C; not altered by milk or BSA (FIG. 10); conditions: tags: Pierce (Thermo Scientific); partial duplex with annealed 10-nt quencher linker at 5' end
Method: (§1) Protein samples are diluted to specified concentrations in PBS. The signaling polynucleotide solutions are prepared at 200 μM in 10 mM TRIS-HCl, pH 7.5, heated to 99° C. for 3 minutes and then cooled to room temperature for 20 minutes. Volumes of 60 μL of protein solutions are added to the wells of a 96-well plate. Signaling polynucleotides are added to the wells as soon as possible after the addition of the protein samples. Fluorescence readings are taken immediately with all readings obtained at 25° C. with an excitation wavelength of 495 nm and emission monitored at the fluorescence peak of 519 nm. The signaling polynucleotides were synthesized by TriLink Biotechnologies (San Diego, Calif.), pure lysozyme was obtained from Pierce (Thermoscientific) and BSA was obtained from Sigma Aldrich.
(§2) The data plotted in FIG. 9A indicate that SPN-E* at a concentration of 100 μM detects lysozyme at a 5 ng/mL concentration and increases the detection level to 3 pg/sample. The data plotted in FIG. 9B indicate that SPN-E can be used to detect lysozyme in unprocessed egg white which was diluted 1:20 (sample size was 30 μL). SPN-E gave a minimal signal with BSA as the negative control protein.

[2] = target: T1, Lysozyme (egg white); assay: fluorescence turn-on; lysozyme spiked into chocolate cake; conditions: tags: Pierce (Thermo Scientific); label: 5'-fluorescein, 3'-Dabcyl; hairpin
Method: A set of binding assays were performed using lysozyme SPNs (MB4, MB5 and MB6). Experimental procedures: Food samples were homogenized as stated above—generally 2.5 ml buffer was added to 0.5 food sample. The samples were homogenized and centrifuged. 25 ul of the sample was added to a 96 flat bottom well plate. The specific SPN was resuspended to a 100 uM concentration and 25 ul of the SPN was added to the plate—final concentration 50 uM. The samples were immediately read with the GloMax Promega plate reader using the blue laser. (detection was quantified as the intensity of FITC minus the background—buffer alone and non-spiked samples).

[3] = target: Bovine serum albumin (Bos taurus, UniProt P02769 P02769:25-607); assay: fluorescence turn-on; minimal signal with BSA negative control; conditions: tags: Sigma Aldrich; label: 5'-fluorescein, 3'-DABCYL; hairpin
Method: as §1, §2

[4] = target: T1, Lysozyme (egg white); assay: fluorescence turn-on; detects lysozyme 0.6-1200 ng/mL; 12 uM SPN; PBS/Tris pH 7.5, 25 C; conditions: tags: Pierce (Thermo Scientific); label: 5'-fluorescein, 3'-Dabcyl; hairpin
Method: as §1
An assay was performed to obtain a dose curve (12 μM of detection of signaling polynucleotide SPN-E per sample). The results are shown in FIG. 8 and indicate that SPN-E detects lysozyme concentrations ranging from 0.6 ng/mL to 1200 ng/mL, translating to less than 50 pg of lysozyme per sample.

[5] = target: Ovomucoid (UniProt P01005 P01005:25-210); assay: ovomucoid spiked in mug cake; conditions: label: 5'-fluorescein, 3'-Dabcyl; hairpin
Sequence of Ovomucoid (P01005 25-210, one chain of several): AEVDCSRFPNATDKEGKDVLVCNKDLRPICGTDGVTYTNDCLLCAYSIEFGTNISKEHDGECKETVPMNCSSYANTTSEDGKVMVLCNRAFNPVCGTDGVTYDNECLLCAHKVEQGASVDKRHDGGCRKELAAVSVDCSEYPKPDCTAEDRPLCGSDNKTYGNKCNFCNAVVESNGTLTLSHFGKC

T1 sequence (P00698 19-147, one chain of several): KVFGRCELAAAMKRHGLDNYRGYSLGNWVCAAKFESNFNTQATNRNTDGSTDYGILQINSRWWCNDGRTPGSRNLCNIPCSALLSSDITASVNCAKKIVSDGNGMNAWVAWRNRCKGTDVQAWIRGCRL
Sequence of Bovine serum albumin (P02769 25-607, one chain of several): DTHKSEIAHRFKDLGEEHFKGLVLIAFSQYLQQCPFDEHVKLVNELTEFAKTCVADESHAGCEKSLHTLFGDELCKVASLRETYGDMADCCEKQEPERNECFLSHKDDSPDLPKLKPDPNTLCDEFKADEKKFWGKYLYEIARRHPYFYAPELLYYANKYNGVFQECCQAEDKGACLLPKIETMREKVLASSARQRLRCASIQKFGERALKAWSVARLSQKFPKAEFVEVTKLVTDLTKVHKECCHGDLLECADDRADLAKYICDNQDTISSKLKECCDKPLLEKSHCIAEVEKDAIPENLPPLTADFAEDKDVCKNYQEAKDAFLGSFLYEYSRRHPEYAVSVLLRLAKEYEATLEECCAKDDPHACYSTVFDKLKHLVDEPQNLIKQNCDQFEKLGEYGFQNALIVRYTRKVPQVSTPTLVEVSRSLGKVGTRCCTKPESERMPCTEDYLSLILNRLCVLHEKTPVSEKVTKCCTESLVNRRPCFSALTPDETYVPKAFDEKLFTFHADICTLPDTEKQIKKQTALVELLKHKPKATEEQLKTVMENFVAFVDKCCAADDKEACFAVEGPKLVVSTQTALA

Binder | binding result [2] | binding result [5] | also measured
B1 | – | – | binding result [1]: binds
TGCAGCTAAGCAGGCGGCTCACAAAACCATTCGCATGCGGCTGCA (ssDNA) [MB4] | binds | – | –
TGCAGCTAAGCAGGCGGCTCACAAAACCATTCGCATGCGGCGCTGC (ssDNA) [SPN-E] | – | – | binding result [3]: no binding; binding result [4]: binds
B2 | – | no binding | –
TGCAGCTAAGCAGGCGGCTCACAAAACCATTCGCATGCGGCGCTGCA (ssDNA) [MB6] | binds | – | –
B3 | – | no binding | –
